T1: amphyphisin SH3 (AMPH_HUMAN), P49418
T1 chain: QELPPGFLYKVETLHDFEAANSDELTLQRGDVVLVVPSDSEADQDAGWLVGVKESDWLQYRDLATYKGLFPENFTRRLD

The target in one assay is T1, amphyphisin SH3 (AMPH_HUMAN), P49418. Put plainly: SPOT array.
For DNGGFKRPLAPSGR [Q9Y5U2 118-131], the normalised SPOT signal, Boehringer light units (BLU); mean over the file's lines of this peptide came out at 31.7.
Still for that read-out and setting: with DPNFPNKPPLTFDI [Q9H314 810-824] the figure was 45.5; with DKSPPPRPPSSPYP [O15550 915-929], 58.2.
DNLKLFRPKKLLPK [Q9BQL6 374-387] registered a normalised SPOT signal, Boehringer light units (BLU); mean over the file's lines of this peptide of 41.9.
DKSPPPRPPTSPYP [O14607 862-876]: the normalised SPOT signal, Boehringer light units (BLU); mean over the file's lines of this peptide was determined as 83.4.
Still for that read-out and setting: as for AEGPPKRPGGSSPL [P48634 1665-1678], the figure is 50.3.
The same measure, in the same setting: as for DPNAPKRPPSGFFL [O15347 88-101], the figure is 20.
Still for that read-out and setting: with DPNTFKRPQTPPKI [Q9Y4E3 337-350] the figure was 27.3; with DLHPPPRPPSPTEI [O43154 1259-1273], 64.8; with DKIPFKRPSTYGVP [O95444 394-407], 35.1.
Consider DIKPLKRPRDEDDA [P11387 132-145], for which the normalised SPOT signal, Boehringer light units (BLU); mean over the file's lines of this peptide stood at 37.9.
With DPNAPKRPLSGFFL [Q9UJ13 78-91], the normalised SPOT signal, Boehringer light units (BLU); mean over the file's lines of this peptide worked out at 40.7.
On the same count and under the same terms, as for DLPGPRRPAAAAAM [Q9NQ62 12-25], the figure is 33.3; as for DMQSFRRPSAASID [Q96QH2 513-526], 16.7; as for DNIPLSRPKRNLSR [Q9Y4P9 18-31], 1930.
The same measure, in the same setting: with DPNPPKRPLIFDTN [O14802 1370-1383] the figure was 20.6; with DKADLIRPKRKYEK [Q9H2F5 327-340], 417; with DKNIPMKPPTPLLN [AAM33634 99-113], 58.3.
Consider AEERPRRPSQEQSA [Q9Y4D0 963-976], for which the normalised SPOT signal, Boehringer light units (BLU); mean over the file's lines of this peptide turned out to be 17.3.
Turning to DIPGPTRPPGQVLS [AAH30713 119-133], the normalised SPOT signal, Boehringer light units (BLU); mean over the file's lines of this peptide amounted to 75.
Same read-out and setting: as for DPPGPPRPPKEPGP [Q9NR59 1285-1299], the figure is 73.4; as for AEEQLRRPRIVHVG [Q9UBR1 62-75], 24.5; as for DPEVLKRPEYFGKF [Q9NZN6 122-135], 43.9.
DKLSPDRPIRDTRH [Q9ULT9 130-143] gave a normalised SPOT signal, Boehringer light units (BLU); mean over the file's lines of this peptide of 3530.
The same measure, in the same setting: with DKKSPTRPKRHAKP [Q99710 3-16] the figure was 4130; with DPEDLKRPDPASLK [Q8WTY4 218-231], 16.1.
With DPNAPKRPPLAFFL [P23497 765-778], the normalised SPOT signal, Boehringer light units (BLU); mean over the file's lines of this peptide was 32.
In the case of DPNAPKRPMSAYML [Q08945 543-556], the normalised SPOT signal, Boehringer light units (BLU); mean over the file's lines of this peptide is 41.4.
With DPRRPKRPRTILTT [O60663 192-205], the normalised SPOT signal, Boehringer light units (BLU); mean over the file's lines of this peptide was 183.
Still for that read-out and setting: with DIPEPRRPVVEQAL [O15031 1306-1319] the figure was 37.2; with AAESPGRPPPTAAE [Q9UPS7 514-528], 22.
The molecule DMAIPSKPPAASPE [Q8TEH3 531-545] came in with a normalised SPOT signal, Boehringer light units (BLU); mean over the file's lines of this peptide of 40.1.
Molecule DPNAPKRPPSAFFL [P09429 90-103] yielded a normalised SPOT signal, Boehringer light units (BLU); mean over the file's lines of this peptide of 39.5.
In the case of DPQAPRRPPSSFLL [Q8WW32 89-102], the normalised SPOT signal, Boehringer light units (BLU); mean over the file's lines of this peptide turned out to be 108.
DLSGLKRPSSSAST [Q9Y338 401-414] registered a normalised SPOT signal, Boehringer light units (BLU); mean over the file's lines of this peptide of 31.5.
For the molecule AEEPLHRPKKELSA [P42858 83-96], the normalised SPOT signal, Boehringer light units (BLU); mean over the file's lines of this peptide is 134.
As to DKKSPTRPKRQAKP [Q9P2W5 3-16], the normalised SPOT signal, Boehringer light units (BLU); mean over the file's lines of this peptide was 3780.
Regarding DLLSPRRPPDDPWA [BAC03422 263-277], the normalised SPOT signal, Boehringer light units (BLU); mean over the file's lines of this peptide is 20.5.

The target of another assay is endophilin SH3 (SH3G2_HUMAN), Q99962. Put plainly: SPOT array.
In turn, DNGGFKRPLAPSGR [Q9Y5U2 118-131] registered a normalised SPOT signal, Boehringer light units (BLU); mean over the file's lines of this peptide of 98.6.
DPNFPNKPPLTFDI [Q9H314 810-824] came in with a normalised SPOT signal, Boehringer light units (BLU); mean over the file's lines of this peptide of 47.9.
The molecule DKSPPPRPPSSPYP [O15550 915-929] came in with a normalised SPOT signal, Boehringer light units (BLU); mean over the file's lines of this peptide of 4090.
On the same count and under the same terms, as for DNLKLFRPKKLLPK [Q9BQL6 374-387], the figure is 71.6; as for DKSPPPRPPTSPYP [O14607 862-876], 4530.
Molecule AEGPPKRPGGSSPL [P48634 1665-1678] returned a normalised SPOT signal, Boehringer light units (BLU); mean over the file's lines of this peptide of 291.
The same measure, in the same setting: with DPNAPKRPPSGFFL [O15347 88-101] the figure was 5320; with DPNTFKRPQTPPKI [Q9Y4E3 337-350], 39.4.
The same measure, in the same setting: as for DLHPPPRPPSPTEI [O43154 1259-1273], the figure is 2640; as for DKIPFKRPSTYGVP [O95444 394-407], 67.7; as for DIKPLKRPRDEDDA [P11387 132-145], 0.
For DPNAPKRPLSGFFL [Q9UJ13 78-91], the normalised SPOT signal, Boehringer light units (BLU); mean over the file's lines of this peptide worked out at 1710.
The same measure, in the same setting: as for DLPGPRRPAAAAAM [Q9NQ62 12-25], the figure is 66; as for DMQSFRRPSAASID [Q96QH2 513-526], 56.
In turn, DNIPLSRPKRNLSR [Q9Y4P9 18-31] came in with a normalised SPOT signal, Boehringer light units (BLU); mean over the file's lines of this peptide of 138.
The molecule DPNPPKRPLIFDTN [O14802 1370-1383] came in with a normalised SPOT signal, Boehringer light units (BLU); mean over the file's lines of this peptide of 33.1.
On the same count and under the same terms, with DKADLIRPKRKYEK [Q9H2F5 327-340] the figure was 64.3; with DKNIPMKPPTPLLN [AAM33634 99-113], 240.
Same read-out and setting: as for AEERPRRPSQEQSA [Q9Y4D0 963-976], the figure is 882; as for DIPGPTRPPGQVLS [AAH30713 119-133], 85.2; as for DPPGPPRPPKEPGP [Q9NR59 1285-1299], 468.
With AEEQLRRPRIVHVG [Q9UBR1 62-75], the normalised SPOT signal, Boehringer light units (BLU); mean over the file's lines of this peptide was 35.1.
On the same count and under the same terms, as for DPEVLKRPEYFGKF [Q9NZN6 122-135], the figure is 108.
Same read-out and setting: with DKLSPDRPIRDTRH [Q9ULT9 130-143] the figure was 794; with DKKSPTRPKRHAKP [Q99710 3-16], 658; with DPEDLKRPDPASLK [Q8WTY4 218-231], 82.4.
Still for that read-out and setting: with DPNAPKRPPLAFFL [P23497 765-778] the figure was 8420.
In the case of DPNAPKRPMSAYML [Q08945 543-556], the normalised SPOT signal, Boehringer light units (BLU); mean over the file's lines of this peptide was 82.6.
On the same count and under the same terms, as for DPRRPKRPRTILTT [O60663 192-205], the figure is 948; as for DIPEPRRPVVEQAL [O15031 1306-1319], 41.3; as for AAESPGRPPPTAAE [Q9UPS7 514-528], 51.1.
Still for that read-out and setting: as for DMAIPSKPPAASPE [Q8TEH3 531-545], the figure is 80; as for DPNAPKRPPSAFFL [P09429 90-103], 3610; as for DPQAPRRPPSSFLL [Q8WW32 89-102], 1200.
On the same count and under the same terms, with DLSGLKRPSSSAST [Q9Y338 401-414] the figure was 27.9.
In turn, AEEPLHRPKKELSA [P42858 83-96] showed a normalised SPOT signal, Boehringer light units (BLU); mean over the file's lines of this peptide of 70.2.
In the case of DKKSPTRPKRQAKP [Q9P2W5 3-16], the normalised SPOT signal, Boehringer light units (BLU); mean over the file's lines of this peptide amounted to 500.
On the same count and under the same terms, with DLLSPRRPPDDPWA [BAC03422 263-277] the figure was 83.

Values taken from paper PMC314469, “Protein Interaction Networks by Proteome Peptide Scanning” (PLoS Biology, 2004).
